From patent publication US20190315859A1 come the findings set out here.

Assay [1] deals with human CD19 expressed on the cell surface (native format) (human) (UniProt P15391). The assay can be described thus: bi-specific antibody titration flow cytometry on Raji cells. (In general: In flow cytometry, cells or beads pass a laser one at a time.)
The target is the same in assay [2]. The assay can be described thus: apparent KD from bi-specific antibody titration flow cytometry on Raji cells.
Assay [3] has the same target. The assay can be described thus: flow cytometry, human PBMC gated on CD20+CD3- B cells, FITC anti-His detection.

What is called EC50 is the concentration at which the effect is half-maximal.

Chain of human CD19 expressed on the cell surface (native format) (human) (P15391 20-488 limits assumed): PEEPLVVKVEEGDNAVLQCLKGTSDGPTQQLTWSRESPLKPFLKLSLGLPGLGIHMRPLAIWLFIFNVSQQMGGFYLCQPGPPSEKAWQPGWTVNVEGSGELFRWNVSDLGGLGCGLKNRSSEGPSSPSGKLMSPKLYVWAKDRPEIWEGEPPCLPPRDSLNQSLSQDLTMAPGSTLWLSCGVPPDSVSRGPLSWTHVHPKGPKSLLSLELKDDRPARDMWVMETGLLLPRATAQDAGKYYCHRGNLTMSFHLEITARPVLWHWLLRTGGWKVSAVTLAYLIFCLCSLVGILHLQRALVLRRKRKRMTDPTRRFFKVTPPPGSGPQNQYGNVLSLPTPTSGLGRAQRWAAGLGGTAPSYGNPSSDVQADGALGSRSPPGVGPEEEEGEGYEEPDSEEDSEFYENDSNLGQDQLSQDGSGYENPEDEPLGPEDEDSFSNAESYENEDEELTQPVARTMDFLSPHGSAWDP

B1: CD19×CD3 bi-specific antibody based on variant clone 5-3 (bispecific antibody, part only; not given: anti-CD3 scFv, linker, His tag, not shown: another chain or arm of the molecule; small tags and cut ends)
scFv: LPVLTQPPSVSVAPGKTARITCGGNNIGSKSVHWYQQKPGQAPVLVVYDDSNRPSGIPERFSGSNSGNTATLTISRVEAGDEADYYCQVWDSSSEYVVFGGGTKLTVLGSRGGGGSGGGGSGGGGSLEMAEVQLVQSGAEVKKPGESLKISCKGSGYSFTSYWIGWVRQMPGKGLEWMGIIYPGDSDTRYSPSFQGQVTISADKSISTAYLQWSSLKASDTAMYYCARQVWGWQGGMYPRSNWWYNMDSWGQGTLVTVSS
As to B1, the EC50 in assay [1] came out at 0.081 µg/mL. Further, in assay [2], the Kd came to 1.6 nM.

B2: CD19×CD3 bi-specific antibody based on clone 6 (bispecific antibody, part only; not given: anti-CD3 scFv arm, linker, His tag, not shown: another chain or arm of the molecule; small tags and cut ends)
scFv: QAVLTQPPSVSEAPRQRVTISCSGSSSNVGNNAVNWYQQVPGKAPKLLIYYDDLLSSGVSDRFSGSKSGTSASLAISGLQSEDEADYYCAAWDDSLNGPVFGGGTKLTVLGSRGGGGSGGGGSGGGGSLEMAEVQLVQSGAEVKKPGESLKISCKGSGYSFTSYWIGWVRQMPGKGLEWMGIIYPGDSDTRYSPSFQGQVTISADKSISTAYLQWSSLKASDTAMYYCARWSSTWDSMYMDYWGQGTLVTVSS
The molecule B2 registered an EC50 in assay [1] of 0.214 µg/mL. Besides, the Kd in assay [2] was 4.1 nM. This molecule also returned a Mean Fluorescence Intensity (MFI) in FITC channel in assay [3] of 2200 MFI.

B3: CD19×CD3 bi-specific antibody based on clone 7 (bispecific antibody, part only; not given: anti-CD3 scFv, linker, His tag, not shown: another chain or arm of the molecule; small tags and cut ends)
scFv: QPVLTQPPSVSVAPGKTARITCGGNNIGSESVHWYQQKPGQAPMVVIYYDSNRPSGIPERFSGSNSGNTATLTVSRVEAEDEADYYCQVWNSSSDHRGVFGGGTKLTVLGSRGGGGSGGGGSGGGGSLEMAEVQLVQSGAEVKKPGESLRISCKGSGYSFTSYWIGWVRQMPGKGLEWMGIIYPGDSDTRYSPSFQGQVTISADKSISTAYLQWSSLKASDTAMYYCARVTYSMDSYYFDSWGQGTLVTVSS
B3: the Mean Fluorescence Intensity (MFI) in FITC channel in assay [3] was 1880 MFI.
